The numbers were not newly measured in US4183849A, “Therapeutic insulin preparation and a process for the production of a stable insulin preparation with protracted effect” (Nordisk Insulinlaboratorium, priority 1975, dated 1980), which cites them from elsewhere.

The conditions of the series: impurities of recrystallized insulin, stated as known.

Consider proinsulin, for which the antigenicity result is “highly antigenic”.
